The target of experiment [1] is T1, annexin-V, membrane-bound trimeric form (A5) (human), P08758.
T1 chain: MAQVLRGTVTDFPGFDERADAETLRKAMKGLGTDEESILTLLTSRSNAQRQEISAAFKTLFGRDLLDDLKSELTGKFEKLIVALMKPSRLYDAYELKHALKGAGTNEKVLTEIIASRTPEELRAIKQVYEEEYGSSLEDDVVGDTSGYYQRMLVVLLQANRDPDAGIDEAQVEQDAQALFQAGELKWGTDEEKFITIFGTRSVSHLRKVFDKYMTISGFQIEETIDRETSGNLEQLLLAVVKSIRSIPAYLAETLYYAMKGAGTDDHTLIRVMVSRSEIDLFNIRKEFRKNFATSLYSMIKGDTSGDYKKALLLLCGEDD
The experiment is described as follows: HS-AFM line scanning (HS-AFM-LS); line scanned across one protomer of the non-p6 trimer in the A5 p6-lattice, 2.4 ms per line; dwell-times in each orientation before rotation. The conditions noted are these: remark: other sources report otherwise.

Experiment [2] addresses T1, annexin-V, membrane-bound trimeric form …. Briefly: HS-AFM height spectroscopy (HS-AFM-HS); tip on one protomer of the rotating non-p6 trimer at the centre of the hexagonal A5 p6-lattice; dwell-times in the 0° and 60° orientations; captured at 655 kHz. The conditions noted are these: remark: other sources report otherwise.

The text below walks through data of article PMC6255864.

B1: annexin-V, membrane-bound trimeric form (A5), P08758 1-320 (natural protein)
chain: MAQVLRGTVTDFPGFDERADAETLRKAMKGLGTDEESILTLLTSRSNAQRQEISAAFKTLFGRDLLDDLKSELTGKFEKLIVALMKPSRLYDAYELKHALKGAGTNEKVLTEIIASRTPEELRAIKQVYEEEYGSSLEDDVVGDTSGYYQRMLVVLLQANRDPDAGIDEAQVEQDAQALFQAGELKWGTDEEKFITIFGTRSVSHLRKVFDKYMTISGFQIEETIDRETSGNLEQLLLAVVKSIRSIPAYLAETLYYAMKGAGTDDHTLIRVMVSRSEIDLFNIRKEFRKNFATSLYSMIKGDTSGDYKKALLLLCGEDD
B1: in experiment [1], the average dwell-time in the 0° or 60° orientation before rotation was found to be 35 ms, the peak of the distribution of state dwell-times before rotation (Gaussian 1 of 3) stood at 13 ms, the peak of the distribution of state dwell-times before rotation (Gaussian 2 of 3) stood at 41 ms and the peak of the distribution of state dwell-times before rotation (Gaussian 3 of 3) is 96 ms. Also, the average dwell-time in the 0° or 60° orientation before rotation in experiment [2] was 26 ms.
